Reference: patent publication US6312941

Key:
[1] = target: wild-type murine JAK2 (expressed in COS cells from pRK5) (murine)
[2] = target: wild-type murine JAK2 (expressed in COS cells from pRK5) (murine); remark: listed apart in the source

Substance	tyrosyl phosphorylation of JAK2 (αMyc immunoprecipitate, anti-phosphotyrosine blot) [1]	tyrosine phosphorylation of JAK2 (αJAK2 immunoprecipitate, anti-PY blot, densitometry normalised to JAK2) [2]
HA-tagged SH2-Bβc (expressed in COS cells)	3 fold	
Myc-tagged SH2-Bβn (truncated at amino acid 555, lacks the SH2 domain)		90%
